This passage reports Km and kcat results from article PMC2820149 (Journal of the American Chemical Society, 2010).

In general, Km refers to the concentration of substrate that gives half-maximal velocity. What is called kcat is the number of substrate molecules converted per active site and unit of time at saturation.

The test system of data set [1] is Pa0142 homologue (gi|44264246).
Substrate in data set [2]: Nc1nccc(O)n1
Put plainly: coupled ammonia assay. The settings on record: pH 8.0, 30 °C. It is filed as biochemical, Pseudomonas aeruginosa.

Substrate in data set [3]: Nc1nc2nc[nH]c2c(=O)[nH]1
Put plainly: coupled ammonia assay. The settings on record: pH 8.0, 30 °C. In kind it is biochemical, Pseudomonas aeruginosa.

Substrate in data set [4]: Nc1nc2nc[nH]c2c(=O)[nH]1
Description: deamination kinetics. It is filed as biochemical, Escherichia coli.

Substrate in data set [5]: Nc1nc2nc[nH]c2c(=O)[nH]1
Description: deamination kinetics. In kind it is biochemical, Pseudomonas aeruginosa.

Regarding `Nc1nc2[nH]cnc2c(=O)[nH]1` [compound 2, guanine], the Michaelis-Menten constant (Km) in data set [1] is 1000 ± 100 µM.
Same read-out and setting: the result for `Nc1nccc(=O)[nH]1` [compound 3, isocytosine] reads 1600 ± 200 µM.

B1: Pa0142 (Pseudomonas aeruginosa PAO1) (protein)
chain: MSRTWIRNPLAIFTANGLDAAGGLVVEDGRIVELLGAGQQPAQPCASQFDASRHVVLPGLVNTHHHFYQTLTRAWAPVVNQPLFPWLKTLYPVWARLTPEKLELATKVALAELLLSGCTTAADHHYLFPGGLEQAIDVQAGVVEELGMRAMLTRGSMSLGEKDGGLPPQQTVQEAETILADSERLIARYHQRGDGARVQIALAPCSPFSVTPEIMRASAEVAARHDVRLHTHLAETLDEEDFCLQRFGLRTVDYLDSVGWLGPRTWLAHGIHFNAEEIRRLGEAGTGICHCPSSNMRLASGICPTVELEAAGAPIGLGVDGSASNDASNMILEARQALYLQRLRYGAERITPELALGWATRGSARLLGRSDIGELAPGKQADLALFKLDELRFSGSHDPLSALLLCAADRADRVMVGGAWRVVDGAVEGLDLAALIARHRAAASALIAG
Regarding B1, the Km in “coupled ammonia assay [2]” was 1800 ± 100 µM; in the data set “coupled ammonia assay [3]”, 2600 ± 600 µM. Besides, the turnover number (kcat) in the data set “coupled ammonia assay [2]” came to 3.9 ± 0.1 s⁻¹; in the data set “coupled ammonia assay [3]”, 3.3 ± 0.6 s⁻¹.

B2: b2883 (Escherichia coli K-12) (protein)
chain: MMSGEHTLKAVRGSFIDVTRTIDNPEEIASALRFIEDGLLLIKQGKVEWFGEWENGKHQIPDTIRVRDYRGKLIVPGFVDTHIHYPQSEMVGAYGEQLLEWLNKHTFPTERRYEDLEYAREMSAFFIKQLLRNGTTTALVFGTVHPQSVDALFEAASHINMRMIAGKVMMDRNAPDYLLDTAESSYHQSKELIERWHKNGRLLYAITPRFAPTSSPEQMAMAQRLKEEYPDTWVHTHLCENKDEIAWVKSLYPDHDGYLDVYHQYGLTGKNCVFAHCVHLEEKEWDRLSETKSSIAFCPTSNLYLGSGLFNLKKAWQKKVKVGMGTDIGAGTTFNMLQTLNEAYKVLQLQGYRLSAYEAFYLATLGGAKSLGLDDLIGNFLPGKEADFVVMEPTATPLQQLRYDNSVSLVDKLFVMMTLGDDRSIYRTYVDGRLVYERN
In the case of B2, in the data set “deamination kinetics [4]”, the Michaelis constant (Km) was determined as 150 ± 10 µM and the catalytic constant (kcat) worked out at 12.5 ± 0.2 s⁻¹.

B3: Pa0134 (Pseudomonas aeruginosa PAO1) (protein)
chain: MNDAVPAGNFVPPLILHSDHGGSAMSSSAHRGRILHFLGDPAKLGDKAWEYFEDGLLWIEHGHVRALDHATYLLPQLPADLPLEEHPQRLLLPGFVDCHVHYPQLGVIASYGTQLLDWLETHTFPAEQRFADAGYAAAQAELFLDELLRHGTTTALVFGTVHAVSAEAFFQAAQKRRLRMIAGKVLMDRNAPPALCDTAASGYAESRALIERWHGNGRLQYAVTPRFAPTSSPEQLAAAARLLDEYPGVYLHTHLSENLKEVAWVGELFPQAQDYLDVYHRAGLVGERSVFAHGIHLSERECRCLAHKNAALAHCPSSNLFIGSGLFDLGRAQQYGIRVGIGSDVGGGTSLSLLANLADAYKIQQLRGTSLDPFQALYLATLGGARALDLDGLVGNFLPGREADFVALDLAATPMIAQRMEHARGLADTLFVLNTLGDDRAVAETWVMGERRHVKG
With B3, in the data set “deamination kinetics [5]”, the Michaelis constant (Km) worked out at 500 ± 90 µM and the kcat amounted to 21 ± 2 s⁻¹.
